Experimental data taken from publication PMC5800781 (Nature, 2017).

T1: BARD1 (human, UniProt Q99728 1-777)
T1 sequence (looked up): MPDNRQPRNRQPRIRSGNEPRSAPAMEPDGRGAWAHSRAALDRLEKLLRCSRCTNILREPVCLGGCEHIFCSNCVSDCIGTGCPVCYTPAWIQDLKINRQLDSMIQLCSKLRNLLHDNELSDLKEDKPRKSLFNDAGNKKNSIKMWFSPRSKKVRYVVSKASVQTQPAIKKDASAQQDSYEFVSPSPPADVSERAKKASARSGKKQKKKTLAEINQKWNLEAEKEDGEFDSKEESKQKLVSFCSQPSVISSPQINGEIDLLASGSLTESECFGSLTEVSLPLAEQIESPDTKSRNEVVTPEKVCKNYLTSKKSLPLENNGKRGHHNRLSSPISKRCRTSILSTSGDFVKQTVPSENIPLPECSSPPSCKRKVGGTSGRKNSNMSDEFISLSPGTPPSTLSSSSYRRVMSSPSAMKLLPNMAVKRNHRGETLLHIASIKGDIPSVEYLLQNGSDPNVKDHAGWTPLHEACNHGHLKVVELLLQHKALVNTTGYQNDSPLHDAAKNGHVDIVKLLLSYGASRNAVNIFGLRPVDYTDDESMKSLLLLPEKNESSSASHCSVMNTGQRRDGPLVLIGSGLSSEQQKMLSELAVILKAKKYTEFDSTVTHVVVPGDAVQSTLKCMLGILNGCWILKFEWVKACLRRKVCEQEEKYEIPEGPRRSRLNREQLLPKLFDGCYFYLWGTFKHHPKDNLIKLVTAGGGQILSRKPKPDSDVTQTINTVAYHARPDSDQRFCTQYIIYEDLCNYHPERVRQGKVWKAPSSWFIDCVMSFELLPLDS

B1: RAD51 (natural protein, human, UniProt Q06609 1-339, looked up)
chain: MAMQMQLEANADTSVEEESFGPQPISRLEQCGINANDVKKLEEAGFHTVEAVAYAPKKELINIKGISEAKADKILAEAAKLVPMGFTTATEFHQRRSEIIQITTGSKELDKLLQGGIETGSITEMFGEFRTGKTQICHTLAVTCQLPIDRGGGEGKAMYIDTEGTFRPERLLAVAERYGLSGSDVLDNVAYARAFNTDHQTQLLYQASAMMVESRYALLIVDSATALYRTDYSGRGELSARQMHLARFLRMLLRLADEFGVAVVITNQVVAQVDGAAMFAADPKKPIGGNIIAHASTTRLYLRKGRGETRICKIYDSPCLPEAEAMFAINADGVGDAKD
B2: GST-BARD1^123-162 (domain or fragment, human, UniProt Q99728 123-162, looked up)
chain: LKEDKPRKSLFNDAGNKKNSIKMWFSPRSKKVRYVVSKAS

How the values were obtained:
[1] = target: BRCA1^Δ758-1064-BARD1 complex ( | human, UniProt P38398 1-1863; Q99728 1-777, Δ758-1064); test: pull-down
BRCA1-BARD1 complex = BRCA1-BARD1 complex ( | human, UniProt P38398 1-1863; Q99728 1-777); test: pull-down
[2] = target: BRCA1^1-500-BARD1 complex ( | human, UniProt P38398 1-500; Q99728 1-777); test: pull-down
BRCA1 = BRCA1 (UniProt P38398 1-1863); test: far-Western, overlay or dot blot
BARD1 = target: T1, BARD1; test: far-Western, overlay or dot blot
RAD51 = target: B1; test: pull-down

Measured: binding result

B1
binds: [1] | BRCA1-BARD1 complex | [2] | BRCA1 | BARD1

B2
binds: RAD51
